Results reported in patent US20190352664A1, “COMPOSITIONS AND METHODS FOR CONTROLLING GENE EXPRESSION” (priority 2017, published 2019).

Test system: Arabidopsis
Assay: Ribo-seq and RNA-seq global translatome profiling (translational efficiency TE, mORF/uORF ribo-shift) upon elf18 treatment
Type: in vivo
Set-up: key to score (Ribo-shift): Up: ribo-shift up (i.e., increased mORF/uORF ratio); Down: ribo-shift down (i.e., decreased mORF/uORF ratio)
Conditions: elf18 vs Mock; for score (TE change): translational efficiency fold change, listed as shows 5′ UTR of the transcript

B1: AT2G35510.1: 5′ UTR of transcript; similar to RCD one 1 (nucleic acid)
DNA: CAAGAGTAGACCGCCGACTTAGATTTTTTCGCCGACGAGAGAATATATATAAATGGCTCGTCTTTTTCCAAACGATTTCTTCTTCTTCGTCGTCGCCGGTTTAGGGTTTCCGTTGCTGTAGCAATTTTCTCTCGCTTCTCTCTCCCCTTTTACAGTTTCTCTTATATTGCTCTTGCCTTGCGTCCAATCTCAAGAGTTCATAAGAGTTGACATTTGTGAACATCGAAGAAATACGGTGACGTTTCTTCTCTGATTACTTTTTGCCAACATGAATACTAATGTATTTATCAACAAGTGCTACAGCCTGTTTTTTTCGAAGCTGTTGGTGAGTTCCCATCCTTAGTACTGCTAGACAGTTCGGTGTGTTAGTTGACTTTATATTCAAGGTTATAGGTTTAGTGTTGTTAGTAGAGAAAA
score (TE change): TEup (448 had increased TEfc)

B2: AT2G35510.1_1: uORF of AT2G35510.1; peptide SEQ ID NO: 11 (nucleic acid)
DNA: ATGGCTCGTCTTTTTCCAAACGATTTCTTCTTCTTCGTCGTCGCCGGTTTAGGGTTTCCGTTGCTGTAG
modifications: listed as DNA, chemistry not fully specified
score (Ribo-shift) (shift of mORF/uORF ratio, per uORF): Up

B3: AT2G42950.1: 5′ UTR of transcript; Magnesium transporter CorA-like family protein (nucleic acid)
DNA: ACATTCATCTCTCTCTCTCAGTCAAATTGTTGTTTTCTTTCTTCGAATCGGTGCAGAAAATTCAGGGAAGTTCTGGGGAAGGTTGTTGCGTTTGACTCCTTTGGCTTAGTTTTCTTTCGAATTCCGTGCTTCCTGATGATCTTACGTGAAATTGCAGCCTAAAATTTCGAGATTGTTTTTTTTACTCAGAAAACGAGATTTGACTGATATGAATCGAAAATCTGTGATTTAAAGTGAAGC
score (TE change): TEdown (389 genes displayed decreased TEfc (|z|≥1.5))

B4: AT2G47210.1: 5′ UTR of transcript; myb-like transcription factor family protein (nucleic acid)
DNA: AAACTGCTGACCGATCCCAAAGGTTGAAAGATTCTTTGGCGCTAAAAAATCCCCAGTTCCCAAATCGGCGTCCTCGTTTGAAACCCTAATTCCTGAATCGAAGCAGATCCTGATCGAATCGAAGGTGTTCGAATGATAGCTACCCAGTAAATTCAGAACCCTAATTAACA
score (TE change): TEdown (389 genes displayed decreased TEfc (|z|≥1.5))

B5: AT3G03070.1: 5′ UTR of transcript; NADH-ubiquinone oxidoreductase-related (nucleic acid)
DNA: AAATAAATGCGTTGTTTGGTACAGCTTCACGAACAATCTCTCTCTCGATAGATTCTTCTTACCTCTGAATTTCTCGTTGTTGGAACA
modifications: listed as DNA, chemistry not fully specified
notes: 5′ UTR of transcript; NADH-ubiquinone oxidoreductase-related
score (TE change): TEdown (389 genes displayed decreased TEfc (|z|≥1.5))

B6: AT3G15030.1: 5′ UTR of transcript; TCP family transcription factor 4 (nucleic acid)
DNA: AGATTTTTTTTTTAAACAAAGAATGGAAAAAAATGAATAAATTTGGGAAACGAGGAAGCTTTGGTTACCCAAAAAAGAAAGAAAGAAAAAATAAAAAAAAATAAAAAGAAAAGCTTTCTCTGGGTTTTTCTTGATTGGTCAATTACACATCTCCCTTTCTCTCTTCTCTCTCTCACCTTCGCTTGCTTTGCTTGCTTCATCTCTTTGGTCTCCTTCTTGCGTTTTCTATTTACTACACAGACCAAACAATAGAGAGAGACTTTAAGCTATAGAAAAAAAGAGAGAGATTCTCTCAAATATGGGTTAGTCCACAATTTTCACTAAACCTCTTCTTCTTAGGATTGTTTTTAGGGTTAGGGTTTTGAGGTGAGGAGAGCAAGTATGCGGGAGTTTCATCCTTTTTGAGTTACTCTGGATTCCTCACCCTCTAACGACGACCACCGTCGCCGCCGCCGCCGCCGTCTCGACGAATATGCTCTACCA
score (TE change): TEdown (389 genes displayed decreased TEfc (|z|≥1.5))

B7: AT1G16700.1: 5′ UTR of transcript; Alpha-helical ferredoxin (nucleic acid)
DNA: AAATTAAGAGACATCTGATCGAATTTTGTTCCGACGACCGTGAATCACCAGCAAAGGATTCGTGTCAATGTTCTTGTGAGATCGAACTTTCTCTGGGTTCGTGCAGAAGCTTTGCTTTTTTGAGTATCGCGTTTAAGGCACATCGAAGAAGAGAGACCCTAATTTGATATTTTGAGTTCTATCG
score (TE change): TEdown (389 genes displayed decreased TEfc (|z|≥1.5))

B8: AT3G18140.1: 5′ UTR of transcript; Transducin/WD40 repeat-like superfamily protein (nucleic acid)
DNA: ATGAGAAAAGCTTGGTAAAAACCCTATTTTTCTTCTTCTCTTCAATTTACAGTTCTCTGCACCTTTTTCTTTCCCCTGTTTTTTGATCCTCAATCACCAAACCCTAGCTTGTTCTTCTGTTGATTATTTCGAAAAGGGGGTTTGTTTGTTTTCTGGGAATCAGCAAAAATCACGAAATGGTTGGTTTAATATTTCAATCGGGATAAAATCGATCGAAA
score (TE change): TEup (448 had increased TEfc)

B9: AT3G55020.1: 5′ UTR of transcript; Ypt/Rab-GAP domain of gyp1p superfamily protein (nucleic acid)
DNA: GTCACACATGTAATAAACCTTGGTCGACAATCTCGCCCTTTCCATGTGATTTCTCCACTTCCTCTCTCTCTCTACTGCAACTTCCTCCTCCTGCTTCAACTTCATTCGGGTAATGATGAACTAGCGTAGAGATTTGGATCTTCTTCTTCGTCCTCTCACCAACTCTTCACCGGTTAGATCTCTTTTTCACGCTAACGA
score (TE change): TEup (448 had increased TEfc)

B10: AT3G56010.1: 5′ UTR of transcript (nucleic acid)
DNA: GTGTTTAGCTTCTTCACTACCACACAGAAACAGAGTTTCCGTCTTTCATCTTCCTCCATATGCGTCGCTCTTAAAAACCTAATTCACA
modifications: listed as DNA, chemistry not fully specified
notes: 5′ UTR of transcript
score (TE change): TEup (448 had increased TEfc)

B11: AT3G63340.1: 5′ UTR of transcript; Protein phosphatase 2C family protein (nucleic acid)
DNA: TCTTCTTCTTCGTTTTCAGGCGGGTGGAGGAGCTCAGAGCCTTCCAGAGGTAACCAACCTTTTATTACCGACAAGATTCTGCCACACAATTATTACATATTTTTGTTCCCATGAAGCAATTGTTCCTTTCAAGCATGTTTACGAGCAAAAGAGTGAAAGGGTAGCTTGATTTTTGTCTACTCTAGCTTCATTTTCTGGCGATCTTTACTTGAGATTTAAACATTTTGCTCTCGGATTGATAATAAAGAAGAATTTGGAATATCAGTAGGTTTGGTTAGGACTCTCGGATTCTGTTGTCGGTTAGATATTTGTTTTGTTTAATCCCTAGATTTAGCAGAGAAATCCCTCAAATCTCACACAATCCATGTAAGGAAGAAG
score (TE change): TEdown (389 genes displayed decreased TEfc (|z|≥1.5))

B12: AT4G11110.1: 5′ UTR of transcript; SPA1-related 2 (nucleic acid)
DNA: CTTACTTAAACACAGTCAAATTCATTTTCTGCCTTAGAAAAGATTTTTATCGAAAATCGACGTTTTTGAAAAAACTCAAATTATCGTCGTTTTGTTCTCAGATTTCTTCTGCTCTCTTCTTCTTCTCCTTCTTCTTCGTTCCACCGCCTCTGTTGCTTTATCTTCTTCTTCCTTCCTTCGATTGTTGATTACGTCGGTGGATCTTTGTTCTCCTCTGTGTTGTTTTCATTGCTAGATTTCGTCAATGATTGGCTTCTCACGATTCGATTTTTCCGGCTCCTGTTCTTAATTTCCTCTGAGAGA
score (TE change): TEup (448 had increased TEfc)

B13: AT4G17840.1: 5′ UTR of transcript (nucleic acid)
DNA: ATCAAAATCAATGATCAAGGTAACGTAGTCAAGTTCAATTACTCTTTGTCAAATTTAAGTGGTCTCTATTACTAAACTATACACAACCGTTAGATCAAATAATTCTCTACCATCCAACGGTCCAAAGTCTCCACTTCTATTTATTACAATAAAATGAGAAAATAAAAACGCGCGGTCACCGATTCTCTCTCGCTCTCTCTGTTACTAAATGAAGAAGAGAATCTCTCCGGCGAGATCACCGGCGTTATTCCGATAATTTCGCCTGAGAGTTGTCGCATGTTATAA
score (TE change): TEup (448 had increased TEfc)

B14: AT4G18570.1: 5′ UTR of transcript; Tetratricopeptide repeat (TPR)-like superfamily protein (nucleic acid)
DNA: ATTTTTATTACTCTCTCAAGTAGTCTCATCTTCTTCTTAATCCAAAGGCCCAAACTTTGAATCATCACTATCACTCTCTCTCTCTCTCTCTATCTCTCAAGAACTGCACGGACAACGACATGCTTTTAATTTCCATGCAAATCTCTCCTTTCTTCTCAAGTCATTTTTGAAAATCAATCAAAAAACTGAAACTTGGTGGAGCTTTTATCATTCACTCATCA
score (TE change): TEdown (389 genes displayed decreased TEfc (|z|≥1.5))

B15: AT4G23740.1: 5′ UTR of transcript; Leucine-rich repeat protein kinase family protein (nucleic acid)
DNA: CTTTCACCCACTTTAATATGCCAAAAAATAAGAACAAAATTATATCCGTTGCTTGAAAATCACAAGCTCTTCTTAACTTCACAAGTGCTTCAATGGCGGTTCTTCACATTATCTTCACTGCGTAATTGAAGAAGTTGTTCTCTCTTCCTCTTAATTTCGAGTTGTGTTCTTAAAAAACTCCAGAGCTGATTCGATTCTCGAGAAGAAACTAAGCCGACAATAAAGTTCAGATCTGGAAAAAAGCGAGCTCCAGATTACAAAAAGAAACAGCTCGTTTTTTTCACTTTCAAAAAA
score (TE change): TEup (448 had increased TEfc)
